Laboratory results from the supplement of paper PMC10126150.
± gives the standard deviation of the averaged measurements.

test system: ATP; test: switch fluorescence ratio, 500 uM ATP over buffer (Cy3 cluster intensity, sum of 5 cycles each) (fold (ratio)); higher = stronger signal-on switching upon ATP binding; sequences stand for … in TCGTCGGCAGCGTCAGATGTGTATAAGAGACAGTTTTTTTTTTTTTTTTTTTTTTTTT…TC; details: aptamer strand: ATP DNA aptamer (quencher-CACCTGGGGGAGTATTGCGGAGGAAGG + anchor), 100 nM annealed; ATP concentration: 500 uM
Method in brief: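 Exposure to 500 uM ATP lasted 15 min at 22 °C before imaging, and a selection-buffer image was taken beforehand, for Cy3-labelled switching-strand clusters on a modified Illumina MiSeq flow-cell annealed to 100 nM quencher-labelled ATP aptamer. Five buffer/ATP cycles were run with NaOH stripping and re-annealing between them. The fluorescence ratio per cluster is summed target-cycle over summed buffer-cycle Cy3 intensity, averaged per switch-domain sequence. Clusters outside 100-1000 RFU were excluded.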

Sequence	switch fluorescence ratio
ATCGAAGGGG	0.981 ± 0.065
ATCGAATAGC	1.02 ± 0.034
ATCGACGGGG	1.01 ± 0.01
ATCGACGTTT	1.03 ± 0.055
ATCGATATAT	0.991 ± 0.036
ATCGATCTGG	1 ± 0.015
ATCGCAGCTC	1.62 ± 0.017
ATCGCAGGCG	1.035 ± 0.0068
ATCGCATGTC	1.23 ± 0.094
ATCGCCATCC	1.235 ± 0.0026
ATCGCCTTGC	1.163 ± 0.001
ATCGCGTTGG	0.983 ± 0.027
ATCGGAAACT	1.03 ± 0.039
ATCGGAAGAA	1.01 ± 0.017
ATCGGAAGCG	1.03 ± 0.011
ATCGGAATGG	1.05 ± 0.024
ATCGGACTTG	0.977 ± 0.033
ATCGGAGGTC	0.978 ± 0.037
ATCGGAGTAT	0.996 ± 0.034
ATCGGATTTT	1.17 ± 0.22
ATCGGCGTAT	1.01 ± 0.012
ATCGGGAATG	1.019 ± 0.0018
ATCGGGACGG	0.9829 ± 0.0029
ATCGGGAGAG	1.05 ± 0.026
ATCGGGAGGA	1 ± 0.029

Sequence	switch fluorescence ratio
ATCGGGGGGA	0.986 ± 0.034
ATCGGGGGGG	1 ± 0.035
ATCGGGGTAG	0.9985 ± 0.0038
ATCGGGGTGC	1.03 ± 0.016
ATCGGTGGTG	0.9839 ± 0.0058
ATCGTAAGGG	0.983 ± 0.038
ATCGTAATTT	0.971 ± 0.062
ATCGTCAGAA	0.969 ± 0.0068
ATCGTCGTGC	0.975 ± 0.015
ATCGTGAGGC	1.05 ± 0.022
ATCGTGTG	1.01 ± 0.038
ATCGTGTTTG	0.952 ± 0.043
ATCGTTCGGC	0.976 ± 0.037
ATCGTTCTGC	1.1 ± 0.019
ATCGTTTATT	0.99436 ± 0.00033
ATCGTTTTTT	0.973 ± 0.018
ATCTAAGTTC	1.01 ± 0.017
ATCTAGCGGA	1.02 ± 0.022
ATCTAGGCAG	0.9915 ± 0.0043
ATCTATCCAC	1.09 ± 0.037
ATCTATCTTG	0.9777 ± 0.0012
ATCTATGCTT	0.989 ± 0.023
ATCTATGGGT	0.987 ± 0.01
ATCTATTAGC	0.9896 ± 0.009
ATCTATTGGG	0.991 ± 0.0066

Sequence	switch fluorescence ratio
ATCTATTGTG	0.974 ± 0.013
ATCTCGGATT	0.9869 ± 0.0041
ATCTCGGCCG	0.9864 ± 0.0012
ATCTCGGGCT	0.973 ± 0.042
ATCTGAATTG	0.988 ± 0.013
ATCTGCGCGC	0.992 ± 0.011
ATCTGGGGGA	0.979 ± 0.046
ATCTGGGGTG	1.02 ± 0.03
ATCTGTACGA	1.02 ± 0.027
ATCTGTGATA	0.977 ± 0.048
ATCTGTGATG	0.987 ± 0.024
ATCTGTTTTG	1.02 ± 0.049
ATCTTAAGAT	0.984 ± 0.066
ATCTTAAGTA	0.9977 ± 0.0091
ATCTTAGGGT	0.978 ± 0.039
ATCTTAGGTT	1.03 ± 0.096
ATCTTCAACT	1.052 ± 0.01
ATCTTCCCCC	1.55 ± 0.016
ATCTTGGCAG	0.968 ± 0.034
ATCTTGGTTG	1 ± 0.026
ATCTTTGCTA	1 ± 0.036
ATGAAAAATT	1.01 ± 0.031
ATGAAAACGT	1 ± 0.014
ATGAAAGCAC	1.09 ± 0.061
ATGAAATAGT	0.959 ± 0.046

Sequence	switch fluorescence ratio
ATGAACATTT	1 ± 0.033
ATGAAGATTA	0.987 ± 0.043
ATGAAGTCGC	1.01 ± 0.025
ATGAATCTCG	0.9898 ± 0.0075
ATGACGCGGA	1.048 ± 0.0097
ATGACTTACG	1.08 ± 0.02
ATGAGAAGTT	1.01 ± 0.007
ATGAGATCAG	1.003 ± 0.005
ATGAGCATGG	1.1 ± 0.016
ATGAGCCACT	0.994 ± 0.03
ATGAGCGACG	0.9921 ± 0.0088
ATGAGGAGTT	0.996 ± 0.025
ATGAGGCCTT	1.01 ± 0.019
ATGAGGGCTA	0.983 ± 0.044
ATGAGGGGAA	1.04 ± 0.034
ATGAGTACAG	1.02 ± 0.027
ATGAGTGTGG	1.02 ± 0.021
ATGATATCTA	0.993 ± 0.022
ATGATATGGT	0.983 ± 0.029
ATGATCGATG	0.979 ± 0.026
ATGATCGGGT	1.02 ± 0.031
ATGATGGGT	1.01 ± 0.028
ATGATTAAGA	1.02 ± 0.019
ATGATTGGAT	0.996 ± 0.029
ATGATTGGTT	1 ± 0.022

Sequence	switch fluorescence ratio
ATGATTGTGG	0.997 ± 0.028
ATGATTTAAC	0.976 ± 0.035
ATGATTTGGT	0.983 ± 0.026
ATGATTTTTT	0.985 ± 0.012
ATGCAAATGC	1.41 ± 0.017
ATGCAAGGTC	1.12 ± 0.049
ATGCACCTCG	1.025 ± 0.006
ATGCAGATCC	1.04 ± 0.042
ATGCATATGG	1.03 ± 0.013
ATGCATTTTA	0.999 ± 0.045
ATGCATTTTT	1.02 ± 0.043
ATGCCAAAGG	1.01 ± 0.055
ATGCCATTAG	0.967 ± 0.02
ATGCCTGATA	0.963 ± 0.029
ATGCGAGCAA	1.11 ± 0.019
ATGCGATCAA	1.02 ± 0.014
ATGCGGACAG	1.011 ± 0.0083
ATGCGGGTTC	1.01 ± 0.012
ATGCGGTCTG	1.04 ± 0.028
ATGCTATACT	1.6 ± 0.022
ATGCTCTTAT	1 ± 0.012
ATGCTGGTGG	0.978 ± 0.046
ATGCTGTCTG	1 ± 0.043
ATGCTTAGGG	0.944 ± 0.02
ATGGAAGAGG	0.982 ± 0.018

Sequence	switch fluorescence ratio
ATGGAATTGT	0.986 ± 0.022
ATGGACAGGT	1.04 ± 0.031
ATGGAGAGAG	0.9929 ± 0.004
ATGGAGTAAA	1.005 ± 0.0084
ATGGAGTCGG	0.986 ± 0.021
ATGGATAGTC	0.986 ± 0.044
ATGGATATAT	0.995 ± 0.016
ATGGATTGCA	0.994 ± 0.023
ATGGATTGTG	0.983 ± 0.011
ATGGATTTAA	1.012 ± 0.0041
ATGGATTTAC	1.06 ± 0.028
ATGGCAAAGA	0.9828 ± 0.0096
ATGGCAGGAT	1 ± 0.063
ATGGCAGGTA	0.992 ± 0.033
ATGGCATAAG	1.003 ± 0.0044
ATGGCGGACG	0.981 ± 0.05
ATGGCGGGTT	1 ± 0.016
ATGGCTGGCG	1.07 ± 0.094
ATGGCTGGGT	0.971 ± 0.029
ATGGCTTCGT	1.03 ± 0.021
ATGGGACGGT	1.03 ± 0.036
ATGGGAGAAA	1.01 ± 0.0045
ATGGGAGGGG	1.01 ± 0.035
ATGGGAGTTT	1.01 ± 0.01
ATGGGATACT	1.03 ± 0.033

Sequence	switch fluorescence ratio
ATGGGCATC	0.9882 ± 0.0058
ATGGGCGAGC	0.981 ± 0.046
ATGGGCGGCC	1.0476 ± 0.00053
ATGGGGACTA	1.0122 ± 0.00084
ATGGGGAGTC	0.985 ± 0.035
ATGGGGATGA	0.9776 ± 0.004
ATGGGGCAGC	1 ± 0.025
ATGGGGCATC	0.9907 ± 0.0082
ATGGGGCTCT	0.9967 ± 0.0067
ATGGGGCTGT	0.979 ± 0.034
ATGGGGGAGG	1.009 ± 0.0031
ATGGGGGATC	1.008 ± 0.0082
ATGGGGGCTG	1.02 ± 0.047
ATGGGGGGAA	0.996 ± 0.037
ATGGGGGTAC	0.998 ± 0.014
ATGGGGGTCG	0.98 ± 0.05
ATGGGGTACG	0.972 ± 0.06
ATGGGGTCGA	1 ± 0.051
ATGGGGTTAA	1.03 ± 0.022
ATGGGTAAGG	0.983 ± 0.019
ATGGGTATCT	0.994 ± 0.033
ATGGGTGAAA	0.9867 ± 0.0084
ATGGGTGGCT	1.011 ± 0.007
ATGGGTTAGA	1.05 ± 0.037
ATGGGTTTAA	0.961 ± 0.063

Sequence	switch fluorescence ratio
ATGGGTTTTT	0.979 ± 0.029
ATGGTAAGAC	1.14 ± 0.062
ATGGTAAGGG	0.991 ± 0.026
ATGGTAGAAA	1.02 ± 0.012
ATGGTATAAC	1.01 ± 0.015
ATGGTATCGG	1.026 ± 0.0074
ATGGTATTTT	1.01 ± 0.013
ATGGTCATAA	0.993 ± 0.022
ATGGTCCCTG	0.997 ± 0.035
ATGGTCCGAG	0.998 ± 0.018
ATGGTCGGCC	0.9831 ± 0.0052
ATGGTGAGGG	0.962 ± 0.011
ATGGTGCGGC	1.008 ± 0.0018
ATGGTGCTGG	0.983 ± 0.035
ATGGTGGGT	0.978 ± 0.033
ATGGTGTCTA	0.981 ± 0.038
ATGGTTAGTG	0.975 ± 0.011
ATGGTTGGTA	0.995 ± 0.038
ATGGTTGGTC	0.97 ± 0.023
ATGGTTGTGC	0.991 ± 0.026
ATGGTTGTTC	1.07 ± 0.16
ATGTAAATGT	1.041 ± 0.0077
ATGTAACGAG	1.01 ± 0.022
ATGTAACTCG	1.03 ± 0.044
ATGTAACTGT	0.976 ± 0.033
